Three molecules from patent US20190248900A1 (Y BIOLOGICS, published 2019) can be followed below.

Changes are numbered by the printed parent chain.

First the molecules themselves.
T1: WFDC2 (Homo sapiens (Human), UniProt Q14508 31-124)
T1 sequence: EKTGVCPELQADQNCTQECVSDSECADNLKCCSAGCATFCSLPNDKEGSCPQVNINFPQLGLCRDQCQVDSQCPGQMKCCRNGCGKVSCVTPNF

T2: FZD10 (Homo sapiens (Human), UniProt Q9ULW2 21-225)
T2 sequence: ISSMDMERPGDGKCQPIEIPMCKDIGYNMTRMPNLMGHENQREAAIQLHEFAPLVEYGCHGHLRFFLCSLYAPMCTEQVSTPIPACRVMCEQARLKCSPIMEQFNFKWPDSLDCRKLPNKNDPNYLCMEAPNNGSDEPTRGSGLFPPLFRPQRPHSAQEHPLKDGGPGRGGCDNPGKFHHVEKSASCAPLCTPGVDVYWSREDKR

T3: WIF1 (Homo sapiens (Human), UniProt Q9Y5W5 29-379)
T3 sequence: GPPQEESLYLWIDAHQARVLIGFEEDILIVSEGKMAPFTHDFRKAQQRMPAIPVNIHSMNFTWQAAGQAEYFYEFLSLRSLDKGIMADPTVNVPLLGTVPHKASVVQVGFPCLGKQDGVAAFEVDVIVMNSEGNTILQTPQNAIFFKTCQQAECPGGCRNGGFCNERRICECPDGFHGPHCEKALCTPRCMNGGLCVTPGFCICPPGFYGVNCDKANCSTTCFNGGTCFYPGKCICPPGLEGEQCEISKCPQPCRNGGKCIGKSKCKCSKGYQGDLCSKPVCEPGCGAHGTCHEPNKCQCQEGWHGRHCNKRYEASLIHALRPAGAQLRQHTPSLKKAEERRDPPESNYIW

T4: BAMBI (Homo sapiens (Human), UniProt Q13145 21-152)
T4 sequence: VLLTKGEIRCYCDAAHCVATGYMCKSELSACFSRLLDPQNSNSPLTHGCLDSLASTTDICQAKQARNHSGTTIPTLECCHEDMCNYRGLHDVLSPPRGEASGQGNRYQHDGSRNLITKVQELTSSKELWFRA

T5: TLR9 (Homo sapiens (Human), UniProt Q9NR96 26-818)
T5 sequence: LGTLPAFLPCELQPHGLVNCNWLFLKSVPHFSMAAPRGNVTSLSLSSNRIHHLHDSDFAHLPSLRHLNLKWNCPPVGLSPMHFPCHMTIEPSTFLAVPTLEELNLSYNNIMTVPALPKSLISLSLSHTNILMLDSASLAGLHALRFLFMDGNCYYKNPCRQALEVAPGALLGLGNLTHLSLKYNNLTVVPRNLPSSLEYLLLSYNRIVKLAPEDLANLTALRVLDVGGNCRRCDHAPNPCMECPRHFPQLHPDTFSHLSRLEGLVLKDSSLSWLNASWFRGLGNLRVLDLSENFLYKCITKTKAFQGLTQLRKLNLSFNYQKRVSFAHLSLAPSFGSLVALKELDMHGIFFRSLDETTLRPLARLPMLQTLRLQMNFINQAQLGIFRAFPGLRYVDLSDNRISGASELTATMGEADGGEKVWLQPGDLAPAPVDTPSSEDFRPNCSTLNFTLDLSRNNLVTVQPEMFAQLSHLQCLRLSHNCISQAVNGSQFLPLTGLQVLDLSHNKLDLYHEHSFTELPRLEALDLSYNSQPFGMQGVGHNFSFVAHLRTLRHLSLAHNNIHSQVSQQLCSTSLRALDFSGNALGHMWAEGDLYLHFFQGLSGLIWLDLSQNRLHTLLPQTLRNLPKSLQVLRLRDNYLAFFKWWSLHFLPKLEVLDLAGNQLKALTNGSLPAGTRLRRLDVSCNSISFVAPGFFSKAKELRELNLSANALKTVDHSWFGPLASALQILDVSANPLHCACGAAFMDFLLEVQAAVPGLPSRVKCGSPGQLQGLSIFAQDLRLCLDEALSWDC

T6: AGR3 (Homo sapiens (Human), UniProt Q8TD06 22-166)
T6 sequence: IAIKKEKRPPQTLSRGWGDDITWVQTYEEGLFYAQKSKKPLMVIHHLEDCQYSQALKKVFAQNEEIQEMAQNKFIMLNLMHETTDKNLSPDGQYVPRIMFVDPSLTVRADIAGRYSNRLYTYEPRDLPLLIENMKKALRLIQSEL

T7: AGR2 (Homo sapiens (Human), UniProt O95994 21-175)
T7 sequence: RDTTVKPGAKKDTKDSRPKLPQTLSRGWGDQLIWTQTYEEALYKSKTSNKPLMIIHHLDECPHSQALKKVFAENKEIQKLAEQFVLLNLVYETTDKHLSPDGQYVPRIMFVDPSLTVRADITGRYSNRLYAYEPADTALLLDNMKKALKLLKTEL

T8: C2orf28 (Homo sapiens (Human), UniProt Q6UW56 31-199)
T8 sequence: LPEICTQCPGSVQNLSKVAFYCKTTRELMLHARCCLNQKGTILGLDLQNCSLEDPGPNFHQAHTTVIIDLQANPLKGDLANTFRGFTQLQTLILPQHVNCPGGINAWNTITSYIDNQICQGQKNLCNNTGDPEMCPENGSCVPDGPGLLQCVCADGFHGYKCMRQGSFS

T9: CREG1 (Homo sapiens (Human), UniProt O75629 32-220)
T9 sequence: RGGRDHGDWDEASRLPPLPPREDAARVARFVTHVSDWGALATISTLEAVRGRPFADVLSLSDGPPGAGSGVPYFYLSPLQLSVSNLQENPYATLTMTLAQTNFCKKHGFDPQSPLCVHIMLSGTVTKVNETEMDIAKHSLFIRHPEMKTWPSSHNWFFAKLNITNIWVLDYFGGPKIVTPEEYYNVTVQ

T10: DKK4 (Homo sapiens (Human), UniProt Q9UBT3 19-224)
T10 sequence: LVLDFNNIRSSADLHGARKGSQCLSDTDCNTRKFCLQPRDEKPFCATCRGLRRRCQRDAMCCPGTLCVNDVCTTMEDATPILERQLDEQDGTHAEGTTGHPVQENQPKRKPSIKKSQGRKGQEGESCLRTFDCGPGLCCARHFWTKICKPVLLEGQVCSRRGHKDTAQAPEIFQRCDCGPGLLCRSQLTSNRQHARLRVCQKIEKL

B1: PD1-41C9 (antibody, V domains shown)
VH: QMQLVESGGGVVQPGRSLRLSCAASGFTFSSYAMHWVRQAPGKGLEWVAVISYDGSNKYYADSVKGRFTISRDNSKNTLYLQMNRLRSEDTAVYYCTTTTFDSWGQGTLITVSS
VL: DIVMTQTPLSLPVTPGEAASISCRSSQSLLDSEDGNTYLDWYLQKPGQSPQLLIYTLSHRASGVPDRFSGSGSGTDFTLKISRVAAEDVGLYYCLQRMGFPYTFGQGTKLDIK
notes: scFv-phage in the screening ELISA; whole IgG in the other assays
B2: PD1-49A2 (antibody, V domains shown)
VH: B1 VH with M2V, S75P, R85S, S88A, Q106R, I110V
VL: B1 VL with T7S, A18P, L30F, E33D, A85E, L91I, L110V, D111E
notes: scFv-phage in the screening ELISA; whole IgG in the other assays; also called Parent 49A2
B3: PD1-45D6 (antibody, V domains shown)
VH: QVQLVESGGGVVQPGRSLRLSCAASGFTFSSYAMHWVRQVPGKGLEWVAVISYDGNDKYYADSVKGRFTISRDNSKNTLYLQMNSLRAEDTAVYYCVPTTFEYWGQGSQVTVSS
VL: DIVMTQTPLSLPVTPGEAASISCRSSQSLLDSDDGKTYLDWYLQKPGQSPQLLIYTLSYRASGVPDRFSGSGSGTEFNLRISRVEAEDVGIYYCMQRVEFPFTFGQGTKLDIK
notes: as for B1

The first experiment deals with T1, WFDC2. Description: ELISA.
With B1, the binding result was “no binding (tested: 1 ug/ml)”.

For B2, the binding result is recorded as “no binding (tested: 1 ug/ml)”.

For the molecule B3, the binding result is listed as “no binding (tested: 1 ug/ml)”.

In another experiment the target is T2, FZD10. Description: ELISA. Background: ELISA stands for enzyme-linked immunosorbent assay.
Turning to B1, the binding result is given as “no binding (tested: 1 ug/ml)”.

Consider B2, for which the binding result is listed as “no binding (tested: 1 ug/ml)”.

Consider B3, for which the binding result is “no binding (tested: 1 ug/ml)”.

For a further experiment, the target named is T3, WIF1. Description: ELISA.
B1: the binding result was “no binding (tested: 1 ug/ml)”.

Regarding B2, the binding result is on record as “no binding (tested: 1 ug/ml)”.

Turning to B3, the binding result is listed as “no binding (tested: 1 ug/ml)”.

The next experiment has as its target T4, BAMBI. Description: ELISA.
On to B1, for which the binding result was “no binding (tested: 1 ug/ml)”.

For the molecule B2, the binding result is “no binding (tested: 1 ug/ml)”.

For the molecule B3, the binding result is “no binding (tested: 1 ug/ml)”.

Another experiment addresses T5, TLR9. Description: ELISA.
As for B1, the binding result is reported as “no binding (tested: 1 ug/ml)”.

For B2, the binding result is given as “no binding (tested: 1 ug/ml)”.

As for B3, the binding result is given as “no binding (tested: 1 ug/ml)”.

The target in a further experiment is T6, AGR3. Description: ELISA.
On to B1, for which the binding result is recorded as “no binding (tested: 1 ug/ml)”.

As for B2, the binding result is listed as “no binding (tested: 1 ug/ml)”.

Regarding B3, the binding result is listed as “no binding (tested: 1 ug/ml)”.

The target of a further experiment is T7, AGR2. Description: ELISA.
Take B1: the binding result is recorded as “no binding (tested: 1 ug/ml)”.

As for B2, the binding result is reported as “no binding (tested: 1 ug/ml)”.

For B3, the binding result is given as “no binding (tested: 1 ug/ml)”.

A further experiment deals with T8, C2orf28. Description: ELISA.
As to B1, the binding result is given as “no binding (tested: 1 ug/ml)”.

With B2, the binding result is on record as “no binding (tested: 1 ug/ml)”.

As to B3, the binding result was “no binding (tested: 1 ug/ml)”.

The next experiment concerns the target T9, CREG1. Description: ELISA.
With B1, the binding result is recorded as “no binding (tested: 1 ug/ml)”.

As for B2, the binding result is reported as “no binding (tested: 1 ug/ml)”.

As for B3, the binding result is reported as “no binding (tested: 1 ug/ml)”.

A further experiment has as its target T10, DKK4. Description: ELISA.
Turning to B1, the binding result was “no binding (tested: 1 ug/ml)”.

With B2, the binding result is reported as “no binding (tested: 1 ug/ml)”.

B3: the binding result was “no binding (tested: 1 ug/ml)”.
